{"source": "paper PMC3921674", "about": "(2014)", "key": {"[1]": {"biological_target": "WDR5 F266A (isothermal calorimetry) (UniProt P61964 1-334, F266A)", "test": "ITC"}, "[2]": {"biological_target": "WDR5 (wild type, isothermal calorimetry) (UniProt P61964 1-334)", "test": "ITC"}}, "data": [{"binder": "GSARAEVHLRKSAFDMFNFLASKHRQPPEYNPNDEEEEEVQ", "note": "[MLL1(3762-3802)]", "values": [{"measurement": "Kd", "setting": "[1]", "result": 0.6, "unit": "µM"}, {"measurement": "Kd", "setting": "[2]", "result": 0.97, "unit": "µM"}]}, {"binder": "ARTKQTARKS", "note": "[H3(1-10)]", "values": [{"measurement": "Kd", "setting": "[1]", "result": 34.7, "unit": "µM"}, {"measurement": "Kd", "setting": "[2]", "result": 31.1, "unit": "µM"}]}]}
